# Assay results as given in patent US20250084372A1, “IN VITRO DERIVATION OF GONADAL SOMATIC CELLS” (Conception Bisosciences, Inc., priority 2020, published 2025).
# B1: FGF18: fibroblast growth factor family member (protein, UniProt O76093 28-207, looked up)
# Fibroblast growth factor 18: EENVDFRIHVENQTRARDDVSRKQLRLYQLYSRTSGKHIQVLGRRISARGEDGDKYAQLLVETDTFGSQVRIKGKETEFYLCMNRKGKLVGKPDGTSKECVFIEKVLENNYTALMSAKYSGWYVGFTKKGRPRKGPKTRENQQDVHFMKRYPKGQPELQKPFKYTTVTKRSRRIRPTHPA
# B2: BMP4: BMP isoform in gonadal induction medium (protein, UniProt P12644 293-408, looked up)
# Bone morphogenetic protein 4: SPKHHSQRARKKNKNCRRHSLYVDFSDVGWNDWIVAPPGYQAFYCHGDCPFPLADHLNSTNHAIVQTLVNSVNSSIPKACCVPTELSAISMLYLDEYDKVVLKNYQEMVVEGCGCR
# B3: BMP7: BMP isoform in gonadal induction medium (protein, UniProt P18075 293-431, looked up)
# Bone morphogenetic protein 7: STGSKQRSQNRSKTPKNQEALRMANVAENSSSDQRQACKKHELYVSFRDLGWQDWIIAPEGYAAYYCEGECAFPLNSYMNATNHAIVQTLVHFINPETVPKPCCAPTQLNAISVLYFDDSSNVILKKYRNMVVRACGCH
# B4: follistatin: protein component of gonadal induction medium (protein, UniProt P19883 30-344, looked up)
# Follistatin: GNCWLRQAKNGRCQVLYKTELSKEECCSTGRLSTSWTEEDVNDNTLFKWMIFNGGAPNCIPCKETCENVDCGPGKKCRMNKKNKPRCVCAPDCSNITWKGPVCGLDGKTYRNECALLKARCKEQPELEVQYQGRCKKTCRDVFCPGSSTCVVDQTNNAYCVTCNRICPEPASSEQYLCGNDGVTYSSACHLRKATCLLGRSIGLAYEGKCIKAKSCEDIQCTGGKKCLWDFKVGRGRCSLCDELCPDSKSDEPVCASDNATYASECAMKEAACSSGVLLEVKHSGSCNSISEDTEEEEEDEDQDYSFPISSILEW
# B5: FGF10: fibroblast growth factor family member (protein, UniProt O15520 38-208, looked up)
# Fibroblast growth factor 10: QALGQDMVSPEATNSSSSSFSSPSSAGRHVRSYNHLQGDVRWRKLFSFTKYFLKIEKNGKVSGTKKENCPYSILEITSVEIGVVAVKAINSNYYLAMNKKGKLYGSKEFNNDCKLKERIEENGYNTYASFNWQHNGRQMYVALNGKGAPRRGQKTRRKNTSAHFLPMVVHS
# B6: BMP15: BMP isoform in gonadal induction medium (protein, UniProt O95972 268-392, looked up)
# Bone morphogenetic protein 15: QADGISAEVTASSSKHSGPENNQCSLHPFQISFRQLGWDHWIIAPPFYTPNYCKGTCLRVLRDGLNSPNHAIIQNLINQLVDQSVPRPSCVPYKYVPISVLMIEANGSILYKEYEGMIAESCTCR
# B7: FGF17: fibroblast growth factor family member (protein, UniProt O60258 23-216, looked up)
# Fibroblast growth factor 17: TQGENHPSPNFNQYVRDQGAMTDQLSRRQIREYQLYSRTSGKHVQVTGRRISATAEDGNKFAKLIVETDTFGSRVRIKGAESEKYICMNKRGKLIGKPSGKSKDCVFTEIVLENNYTAFQNARHEGWFMAFTRQGRPRQASRSRQNQREAHFIKRLYQGQLPFPNHAEKQKQFEFVGSAPTRRTKRTRRPQPLT
# How the values were obtained:
# Assay type in all cases: cell-based, human
# [1] = tested on: ovarian somatic cells (OSCs); assay: OSC induction with different FGF family members, marker expression; conditions: 10 ng/mL FGF in granulosa double medium
# Method: Fibroblast growth factors (FGFs) are a large family of proteins that are important for signaling events in a wide variety of processes. […] Briefly, gonadal cells were induced in granulosa doublemedium comprising different FGFs, and the expression of bipotential gonadal markers as well as that of granulosa markers were measured in the resulting cells.
# The replated cells from the second intermediate population were incubated in the granulosa double medium (also referred to as gonadal induction medium or OSC induction medium) according to Table 18, with the same concentration of either FGF2, 9, 10, 16, 17, 18 or 19. The expression of bipotential gonadal markers (WT1, LHX9, GADD45G and GATA4) as well as granulosa markers (FOXL2, NR1H4 and KITLG) were measured in the resulting cells.
# [2] = tested on: ovarian somatic cells (OSCs); assay: Concentration titration of BMP4, follistatin and FGF2 in OSC induction, qPCR for GATA4 and FOXL2
# Method: Various concentration titrations of BMP4, Follistatin and FGF were tested in OSC induction, and the resulting cells were examined for expression of bipotential gonadal markers as well as that of granulosa markers.
# The OSCs were induced based on the protocols described in Example 6, but with various concentrations of BMP4. Follistatin and FGF tested.
# The OSC induction conditions were first tested by varying the BMP4 concentration. […] The gene expression of resulting cells was tested by qPCR for bi-potential gonadal cell markers (GATA4) as well as for granulosa cell markers (FOXL2) (FIGS. 12A and 12B respectively). Expression of GATA4 increased with higher BMP4 concentration, and FOXL2 expression appeared to peak at 10 ng/ml of BMP4 under the conditions tested.
# Four different concentrations of follistatin were then tested in OSC induction, with the concentration of BMP4 kept constant at 20 ng/ml as previously described. The gene expression of resulting cells was tested by qPCR for bi-potential gonadal cell markers (GATA4) as well as for granulosa cell markers (FOXL2) (FIGS. 12C and 12D respectively). […] The generation of mature OSCs were also examined by FOXL2 expression. […] In subsequent experiments, OSC induction in the absence or at lower concentrations of follistatin was further explored.
# Five different concentrations of FGF2 were then tested in OSC induction, with the concentration of BMP4 kept constant at 20 ng/mL and follistatin removed (Ong/mL). The gene expression of resulting cells were tested by qPCR for bi-potential gonadal cells (GATA4) as well as for granulosa cells (FOXL2) (FIGS. 12E and 12F respectively). As shown by FIGS. 12E and 12F, both GATA4 expression and FOXL2 expression reached saturation at 20 ng/ml of FGF2.
# [3] = tested on: ovarian somatic cells (OSCs); assay: OSC induction with different BMP isoforms, marker qPCR; conditions: 20 ng/mL BMP in granulosa double medium
# Method: Gonadal somatic cells were induced in granulosa double medium comprising different BMP isoforms, and the expression of bipotential gonadal markers as well as that of granulosa markers were measured in the resulting cells.
# The expression of bipotential gonadal markers (WT1, LHX9, GADD45G and GATA4) as well as granulosa markers (FOXL2, NR1H4 and KITLG) were measured by qPCR in the resulting cells.
molecule,measurement,setting,value
B1,"expression of bipotential gonadal markers (WT1, LHX9, GADD45G, GATA4) compared to FGF2",[1],comparable or higher
same,"expression of granulosa markers (FOXL2, NR1H4, KITLG) compared to corresponding medium",[1],comparable
B2,BMP4 concentration at which FOXL2 expression peaks,[2]; OSC induction,10 ng/mL
same,concentration at which the BMP4 effect saturates for OSCs,[2]; OSC induction,20 ng/mL
same,expression of GATA4,[2]; higher BMP4 concentration,increased
B3,"expression of bipotential gonadal markers (WT1, LHX9, GADD45G, GATA4) compared to BMP4",[3],comparable or higher
same,"expression of granulosa markers (FOXL2, NR1H4, KITLG) compared to BMP4",[3],comparable or higher
B4,GATA4 expression on removing follistatin altogether,"[2]; 0 ng/mL follistatin, BMP4 20 ng/ml",increase
same,FOXL2 expression,"[2]; 25 ng/ml follistatin, no further increase at higher concentrations",marginal increase
same,FOXL2 expression,"[2]; higher concentrations of follistatin, BMP4 20 ng/ml",marginal increase
B5,"expression of bipotential gonadal markers (WT1, LHX9, GADD45G, GATA4) compared to FGF2",[1],comparable or higher
same,"expression of granulosa markers (FOXL2, NR1H4, KITLG) compared to corresponding medium",[1],comparable
B6,"expression of bipotential gonadal markers (WT1, LHX9, GADD45G, GATA4) compared to BMP4",[3],comparable or higher
same,"expression of granulosa markers (FOXL2, NR1H4, KITLG) compared to BMP4",[3],comparable or higher
B7,"expression of bipotential gonadal markers (WT1, LHX9, GADD45G, GATA4) compared to FGF2",[1],comparable or higher
same,"expression of granulosa markers (FOXL2, NR1H4, KITLG) compared to corresponding medium",[1],comparable
